Measured values as given in US9259432.

Target: S100B protein
Test: tryptophan fluorescence quenching, S100B titrated into 5.0 µM peptide, 0.1 mM CaCl2, 12° C.

Chain of S100B protein (P02638 2-92): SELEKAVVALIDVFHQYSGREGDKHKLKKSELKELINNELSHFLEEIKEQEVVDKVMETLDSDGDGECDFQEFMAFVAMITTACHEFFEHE

Kd: 211 nM
Substance: TRTK12 peptide
